Data on 1 substance can be found in article PMC10823590.

For the experiment, the target named is ST2 receptor (isolated protein used in ELISA and in the fluorescence emission assay) (UniProt Q01638). The experiment is described as follows: fluorescence emission before and after incubation with the receptor; IL-33 analogues at 50 ug/mL, fluorescence emission measured before and after incubation with ST2 at 200 ug/mL, n = 3.

Turning to “IL-33(6) (from UniProt O95760 1-270) (ligand)”, the fold increase of fluorescence emission upon receptor binding stood at 4 fold.
